Assay results published in paper PMC7683400.
pKd: −log10 of the molar value.

Tests used:
[1] = biological target: fully glycosylated CmeA (g2CmeA), soluble periplasmic His6-tagged CmeA (Campylobacter jejuni) (UniProt Q0PBE3); assay: SPR; g0CmeA (1,040 RU) or g2CmeA (900 RU) immobilised on a CM5 chip by amine coupling; CmeC flowed over in 2-fold dilutions from 2 × 10^-7 M; HBS-PE (10 mM HEPES pH 7.4, 3 mM EDTA, 0.005% P20), 25°C, 30 µl/min; constants are of the slow interactions only, the fast interactions could not be fitted
[2] = biological target: nonglycosylated CmeA (g0CmeA), soluble periplasmic His6-tagged CmeA (Campylobacter jejuni) (UniProt Q0PBE3); assay: as above
[3] = biological target: CmeC (outer membrane channel of the CmeABC efflux pump) (UniProt Q0PBE5); assay: SPR (Biacore, CM5 chip); conditions: pH 7.4; 25°C; not stated (no salt is listed in the buffer recipes); pH 7.4: 10 mM HEPES (HBS-PE); pH 6.0: 10 mM MES

Substance	pKd [1]	koff [1] [s⁻¹]	kon [1] [M⁻¹ s⁻¹]	pKd [2]	koff [2] [s⁻¹]	kon [2] [M⁻¹ s⁻¹]	koff [3]	kon [3]
CmeC, outer membrane channel of CmeABC, 10×His-tagged, expressed in E. coli (natural protein)	8.30	0.00075	150000	7.77	0.00085	50000		
g2CmeA (fully N-glycosylated CmeA)							7.5 ± 0.6 × 10^–4 s^–1	1.5 ± 0.04 × 10^5 (M^–1 s^−1)
g0CmeA (non-glycosylated CmeA, periplasmic fusion protein of the CmeABC efflux pump)							8.5 ± 1.0 × 10^–4 s^–1	5.0 ± 0.8 × 10^4 (M^–1 s^–1)
